Experimental data reported in US7528106B2, “Compositions and methods for treatment of neovascular diseases” (The Scripps Research Institute, priority 2004, dated 2009).

Tested on: deep retinal vascular network formation in neonatal Balb/C mice
Test: Neonatal mouse retinal angiogenesis model
Type: in vivo
Details: for % of eyes with 75-100% inhibition of deep vascular layer / % of eyes with 0-10% inhibition of deep vascular layer / % of eyes with 10-25% inhibition of deep vascular layer / % of eyes with 25-50% inhibition of deep vascular layer / % of eyes with 50-75% inhibition of deep vascular layer: intravitreal P4, read P12
Excerpt: Description of the Model. Immediately after birth (postnatal day zero; “P0”), retinal vasculature is virtually absent in the mouse. By four weeks after birth (P28) the retina has attained an adult pattern of retinal vessels coincident with the onset of vision. Physiological neovascularization of the retina occurs during this period via a stereotypical, biphasic developmental pattern of angiogenesis. During the primary phase of retinal vascular development, spoke-like peripapillary vessels grow radially from the central retinal artery and vein, becoming progressively interconnected by a capillary plexus that forms between them. This “inner retinal plexus” grows in area, volume and complexity, centrifugally, as a monolayer within the nerve fiber layer during the first seven to ten days following birth.
The second phase of retinal vessel formation begins between postnatal days 7 (P7) and 10 (P10) when collateral branches sprout from capillaries of the superficial plexus and penetrate into the retina where their tips branch and anastamose laterally to form a planar “deep vascular plexus”. While the deep vascular plexus is in place by P14, it undergoes extensive remodeling from P14 to P21. It is of interest to note that the formation of these vascular networks in the neonatal mouse are strikingly similar to the events occurring in the third trimester human fetus.
Advantages and Quantification of the Model. The reproducibility of the murine retinal development process and its easy accessibility in neonatal animals provide an opportunity to assess the efficacy of antiangiogenic compounds in a physiologically relevant model of angiogenesis. Additional advantages of the neonatal mouse model are the ability to qualitatively and quantitatively evaluate the angiostatic effect of putative antagonists of angiogenesis. Angiostatic activity was evaluated based upon the degree of angiogenesis in the deep, outer retinal vascular layer (secondary layer) that develops between P8 and P12. The appearance of the inner blood vessel network (primary layer) was evaluated for normal development and signs of toxicity.
Preparation of Compositions. Peptidomimetic integrin signaling inhibitor Compound (1) is solubilized in PBS at a concentration of about 20 mg/ml in PBS (1× concentration). T2-TrpRS is solubilized in PBS at a concentration of about 0.5 mg/ml (1× concentration). VEGF aptamer (pegaptanib sodium; Compound (2)) is solubilized in PBS at a concentration of about 2 mg/ml (1× concentration) to achieve an injection of approximately 1 μg/eye at 1× concentration. For all combination assays the compounds were prepared at 2 or 3 times the 1× concentration of each material and then combined to produce a final solution containing each individual compound at the same concentration as was used alone (e.g., 1×, 0.5×, 0.25× or 0.1×, as the case may be). For all assays, a single injection of 0.5 μl of PBS solutions of the drugs was administered intravitreally regardless of the number of compounds being injected. As used herein, the term “0.1×” refers to one tenth of the 1× concentration of a given material, “0.25×” refers to one quarter of the 1× concentration of a given material, “0.5×” refers to one half of the 1× concentration of a given material, and so forth for similar designations.
An in vivo angiogenesis assay in the neonatal mouse (Balb/C, The Jackson Laboratory, Bar Harbor, Me.) was used to evaluate the angiostatic activity of integrin signaling inhibitor Compound (1), T2-TrpRS, and VEGF aptamer Compound (2). Intravitreous injection and retina isolation was performed with a dissecting microscope (SMZ 645, Nikon, Japan). […] The samples (0.5 μl) were injected with a Hamilton syringe fitted with a 32-gauge needle (Hamilton Company, Reno, Nev.). The injection was made between the equator and the corneal limbus. During injection, the location of the needle tip was monitored by direct visualization to determine that it was in the vitreal cavity. […]

[1] = Table 12, composite data from the Examples, 1× (Compound (2) 0.5× to 1×)
[2] = Table 13A, 0.25 μg per eye, intravitreal P7, read P12
[3] = Table 13C low dosing, 0.1x (integrin ant. 1.0 μg, VEGF apt. 0.20 μg, T2-TrpRS 0.025 μg)

B1: T2-TrpRS: 43 kDa angiostatic T2 fragment of human tryptophanyl-tRNA synthetase, SEQ ID NO: 1 (protein)
chain: MSAKGIDYDKLIVRFGSSKIDKELINRIERATGQRPHHFLRRGIFFSHRDMNQVLDAYENKKPFYLYTGRGPSSEAMHVGHLIPFIFTKWLQDVFNVPLVIQMTDDEKYLWKDLTLDQAYSYAVENAKDIIACGFDINKTFIFSDLDYMGMSSGFYKNVVKIQKHVTFNQVKGIFGFTDSDCIGKISFPAIQAAPSFSNSFPQIFRDRTDIQCLIPCAIDQDPYFRMTRDVAPRIGYPKPALLHSTFFPALQGAQTKMSASDPNSSIFLTDTAKQIKTKVNKHAFSGGRDTIEEHRQFGGNCDVDVSFMYLTFFLEDDDKLEQIRKDYTSGAMLTGELKKALIEVLQPLIAEHQARRKEVTDEIVKEFMTPRKLSFDFQ
modifications: homo sapiens
Ex 10, 0.3× (1×=0.5 mg/ml)
  % of eyes with 75-100% inhibition of deep vascular layer: 25%
Ex 10, 1× (0.5 mg/ml)
  % of eyes with 0-10% inhibition of deep vascular layer: 8.3%
  % of eyes with 10-25% inhibition of deep vascular layer: 16.7%
  % of eyes with 25-50% inhibition of deep vascular layer: 25%
  % of eyes with 50-75% inhibition of deep vascular layer: 8.7%
  % of eyes with 75-100% inhibition of deep vascular layer: 41.7%
Ex 10, 2× (1×=0.5 mg/ml)
  % of eyes with 0-10% inhibition of deep vascular layer: 8.3%
  % of eyes with 10-25% inhibition of deep vascular layer: 25%
  % of eyes with 25-50% inhibition of deep vascular layer: 0%
  % of eyes with 50-75% inhibition of deep vascular layer: 16.7%
  % of eyes with 75-100% inhibition of deep vascular layer: 41.7%
Ex 10, 3× (1×=0.5 mg/ml)
  % of eyes with 0-10% inhibition of deep vascular layer: 66.7%
  % of eyes with 10-25% inhibition of deep vascular layer: 25%
  % of eyes with 25-50% inhibition of deep vascular layer: 8.7%
  % of eyes with 50-75% inhibition of deep vascular layer: 0%
  % of eyes with 75-100% inhibition of deep vascular layer: 0%
Ex 11, 0.3× (1×=0.5 mg/ml)
  % of eyes with 0-10% inhibition of deep vascular layer: 33.3%
  % of eyes with 10-25% inhibition of deep vascular layer: 16.7%
  % of eyes with 25-50% inhibition of deep vascular layer: 0%
  % of eyes with 50-75% inhibition of deep vascular layer: 0%
  % of eyes with 75-100% inhibition of deep vascular layer: 50%
Ex 11, 1× (0.5 mg/ml)
  % of eyes with 0-10% inhibition of deep vascular layer: 14.3%
  % of eyes with 10-25% inhibition of deep vascular layer: 14.3%
  % of eyes with 25-50% inhibition of deep vascular layer: 7.1%
  % of eyes with 50-75% inhibition of deep vascular layer: 14.3%
  % of eyes with 75-100% inhibition of deep vascular layer: 50%
Ex 11, 2× (1×=0.5 mg/ml)
  % of eyes with 0-10% inhibition of deep vascular layer: 12.5%
  % of eyes with 10-25% inhibition of deep vascular layer: 12.5%
  % of eyes with 25-50% inhibition of deep vascular layer: 12.5%
  % of eyes with 50-75% inhibition of deep vascular layer: 12.5%
  % of eyes with 75-100% inhibition of deep vascular layer: 50%
Ex 11, 3× (1×=0.5 mg/ml)
  % of eyes with 0-10% inhibition of deep vascular layer: 14.3%
  % of eyes with 10-25% inhibition of deep vascular layer: 14.3%
  % of eyes with 25-50% inhibition of deep vascular layer: 14.3%
  % of eyes with 50-75% inhibition of deep vascular layer: 28.5%
  % of eyes with 75-100% inhibition of deep vascular layer: 28.5%
Ex 11, 5× (1×=0.5 mg/ml)
  % of eyes with 0-10% inhibition of deep vascular layer: 16.6%
  % of eyes with 10-25% inhibition of deep vascular layer: 33.3%
  % of eyes with 25-50% inhibition of deep vascular layer: 33.3%
  % of eyes with 50-75% inhibition of deep vascular layer: 16.6%
  % of eyes with 75-100% inhibition of deep vascular layer: 0%
Examples 10 and 11, 0.1× to 5×
  mice having 75-100% inhibition in the deep vascular layer, maximum over doses: ≤ 50%
[1]
  % of mice with 0-10% inhibition of deep vascular layer: 23.9%
  % of mice with 10-25% inhibition of deep vascular layer: 17.4%
  % of mice with 25-50% inhibition of deep vascular layer: 15.2%
  % of mice with 50-75% inhibition of deep vascular layer: 8.7%
  % of mice with 75-100% inhibition of deep vascular layer: 34.8%
  % of mice with 100% inhibition of deep vascular layer: 2.2%
  % of mice with >95% inhibition of deep vascular layer: 8.7%
[2]
  Percentage of retinas with 0-10% neovascular inhibition: 23.9%
  Percentage of retinas with 10-25% neovascular inhibition: 17.4%
  Percentage of retinas with 25-50% neovascular inhibition: 15.2%
  Percentage of retinas with 50-75% neovascular inhibition: 8.7%
  Percentage of retinas with 100% neovascular inhibition: 2.2%
  Percentage of retinas with >75% neovascular inhibition: 34.8%
  Percentage of retinas with >90% neovascular inhibition: 8.7%
[3]
  Percentage of retinas with 0-10% neovascular inhibition: 50%
  Percentage of retinas with 10-25% neovascular inhibition: 37.5%
  Percentage of retinas with 25-50% neovascular inhibition: 12.5%
  Percentage of retinas with 50-75% neovascular inhibition: 0%
  Percentage of retinas with 100% neovascular inhibition: 0%
  Percentage of retinas with >75% neovascular inhibition: 0%
  Percentage of retinas with >90% neovascular inhibition: 0%
Monotherapy at optimal dose
  retinas that developed a normal, complete deep vascular plexus: 24%
  retinas that exhibited over 75% inhibition: 35%
With increasing dosages, Examples 10 and 11
  efficacy at the 95-100% inhibition level: ≤ 50%
